{"source": "paper PMC2806925", "about": "“Crystal Structure of the S. solfataricus Archaeal Exosome Reveals Conformational Flexibility in the RNA-Binding Ring” (PLoS ONE, 2010)", "proteins": {"B1": {"name": "Sulfolobus solfataricus exosome subunit Rrp4 as in the crystallised Rrp4-exosome isoform (natural protein)", "chain": "MNMSQSQKIVLQPRSIVVPGELLAEGEFQIPWSPYILKINSKYYSTVVGLFDVKDTQFEVIPLEGSFYYPKINDIVIGLVEDVEIYGWVVDIKAPYKAYLPASNLLGRSINVGEDLRRYLDVGDYVIARIENFDRSIDPVLSVKGKDLGRVSNGIVIDIMPVKVPRVIGKNKSMYETLTSKSGCSIFVANNGRIWATCPSRFSEEILIEAIRKIENESHIKGLTDRIKQFIEEKLGERNASSGETKTNS", "notes": "domains as printed: N-ter aa 1-50, S1 aa 56-126, KH aa 135-250; The purification of the Rrp4-exosome isoform is not described on its own; In the four-subunit preparation the His6-tag was removed with TEV protease, so the tag was probably cleaved here too; also called Chains C, F and I"}}, "target": "the molecule itself", "assay": "crystal structure; Rrp4-exosome isoform (Rrp4, Rrp41, Rrp42 co-expressed and co-purified); 2.9 Å, space group C2; 30% PEG4000, 100 mM Tris-HCl pH 8.6, 200 mM Mg(Ac)2; refined without three-fold NCS", "data": [{"protein": "B1", "values": [{"measurement": "stoichiometry N", "result": 3}]}]}
